# Test results: patent US20130059773A1, “COMPOUNDS FOR THE TREATMENT OF INFLAMMATION AND NEUTROPENIA” (priority 2010, published 2013)
# B1: Ovalbumin: control protein tested at the same concentration (protein, UniProt P01012 2-386, looked up)
# Ovalbumin: GSIGAASMEFCFDVFKELKVHHANENIFYCPIAIMSALAMVYLGAKDSTRTQINKVVRFDKLPGFGDSIEAQCGTSVNVHSSLRDILNQITKPNDVYSFSLASRLYAEERYPILPEYLQCVKELYRGGLEPINFQTAADQARELINSWVESQTNGIIRNVLQPSSVDSQTAMVLVNAIVFKGLWEKAFKDEDTQAMPFRVTEQESKPVQMMYQIGLFRVASMASEKMKILELPFASGTMSMLVLLPDEVSGLEQLESIINFEKLTEWTSSNVMEERKIKVYLPRMKMEEKYNLTSVLMAMGITDVFSSSANLSGISSAESLKISQAVHAAHAEINEAGREVVGSAEAGVDAASVSEEFRADHPFLFCIKHIATNAVLFFGRCVSP
# B2: G-CSF: survival factor extending neutrophil longevity (protein, UniProt P09919 31-207, looked up)
# Granulocyte …: TPLGPASSLPQSFLLKCLEQVRKIQGDGAALQEKLVSECATYKLCHPEELVLLGHSLGIPWAPLSSCPSQALQLAGCLSQLHSGLFLYQGLLQALEGISPELGPTLDTLQLDVADFATTIWQQMEELGMAPALQPTQGAMPAFASAFQRRAGGVLVASHLQSFLEVSYRVLRHLAQP
# Experiments:
# procaspase-9 = target: T1, procaspase-9 (Homo sapiens, UniProt P55211); experiment: In vitro procaspase-9 activation assay using neutrophil cytosol, cytochrome c and dATP; format: biochemical; set-up: dose or concentration left out as unconfirmed
# T1 construct: using neutrophil cytosol containing all the apoptosome components, i.e., procaspase-9; endogenous in cells; host or cells: neutrophil cytosol (primary neutrophils)
# T1 sequence (P55211 1-416): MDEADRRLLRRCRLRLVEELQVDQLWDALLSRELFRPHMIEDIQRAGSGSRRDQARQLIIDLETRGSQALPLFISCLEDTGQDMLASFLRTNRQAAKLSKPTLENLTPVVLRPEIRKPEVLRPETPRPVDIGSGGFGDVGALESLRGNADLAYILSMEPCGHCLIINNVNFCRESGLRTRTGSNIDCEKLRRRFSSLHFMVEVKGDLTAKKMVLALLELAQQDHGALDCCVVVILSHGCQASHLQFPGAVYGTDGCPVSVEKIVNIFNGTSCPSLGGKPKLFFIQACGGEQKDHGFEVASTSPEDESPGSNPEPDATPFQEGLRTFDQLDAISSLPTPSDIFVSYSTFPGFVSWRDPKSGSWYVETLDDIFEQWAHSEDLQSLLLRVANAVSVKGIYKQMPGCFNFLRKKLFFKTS
# Method: That hypothesis was tested by evaluating procaspase-9 cleavage in an in vitro assay, using neutrophil cytosol containing all the apoptosome components, i.e., procaspase-9 and apoptotic protease-activating factor-1 (Apaf-1) as previously described (McStay et al. 2008; Cell Death Differ. 15:322-331).
# neutrophils [1] = experiment: Neutrophils isolated from G-CSF-treated healthy donors: PCNA content and constitutive apoptosis; format: in vivo, human
# Method: Neutrophil isolation, granulocytic differentiation of CD34^+ precursors and cell culture. Human neutrophils from healthy (Etablissement Francais du Sang, Paris) or G-CSF-treated healthy donors ([…] for 5 days to induce hematopoietic stem cells mobilization) (Biotherapy Department, Necker Hospital, France) were isolated from EDTA-anticoagulated blood, using density-gradient centrifugation through polymorphoprep (Nycomed), as described in Witko-Sarsat et al. (1999, Blood 94:2487-2496). […]
# (§1) Western blot analysis and co-immunoprecipitation experiments. Neutrophils were sonicated and cytosolic proteins were analyzed using either the PC10 mAb or the Ab5 pAb anti-PCNA according to standard immunoblot procedures (Moriceau et al. 2009, J. Immunol. 182:7254-7263). […] The sample was eluted from the column with […] 5× sample buffer and analyzed by Western blotting using different mAb to potential partners. PCNA was detected on the Western blot with the PC10 mAb and procaspases were detected with either anti-procaspase-8 (Calbiochem) mAb or mouse anti-procaspase-10 (Santa Cruz) or anti-procaspase-9 (Santa Cruz) or anti-procaspase-3 (Santa Cruz) mAbs, followed by horseradish peroxidase-conjugated anti-mouse IgG (Nordic Immunology diluted 1:5000), using the SuperSignal West Pico detection kit (Pierce).
# PCNA = PCNA expression in neutrophils by Western blot; format: cell-based, human; settings: G-CSF 1000 U/ml, 6 h to 15 h
# Method: as §1, with “182:7254-7263). Co-immunoprecipitation experiments were performed using neutrophil cytosols obtained by cavitation (Witko-Sarsat et al. 1999, Blood 94:2487-2496). Cytosol ([…]) was mixed with […] of protein G and Ab5 pAb and incubated for 30 min at 4° C. under shaking. The sample was loaded onto a column containing Sepharose-coated magnetic beads (Milteny), washed with a stringent washing buffer (50 mM Tris, 500 mM NaCl, 1% NP-40, 0.5% Triton X-100).” for “182:7254-7263).”
# neutrophils [2] = experiment: Neutrophil apoptosis/survival by phosphatidylserine externalization after annexin-V and 7-AAD labeling; format: cell-based, human; settings: G-CSF 200 or 1000 U/ml, 15 h at 37° C.
# Method: Analysis of apoptosis. Neutrophil apoptosis was triggered by incubating neutrophils at 37° C. alone (constitutive apoptosis) or with anti-Fas mAb (10 ng/ml; Beckman-Coulter) or gliotoxin ([…]; Sigma) (Ward et al. 1999, J. Biol. Chem. 274:4309-4318) for the indicated times. Neutrophil apoptosis was evaluated by phosphatidylserine externalization after annexin-V and 7-AAD labeling (Kantari et al. 2007, Blood 110:4086-4095); mitochondrial depolarization after DiOC6 labeling (Moriceau et al. 2009, J. Immuno1.182:7254-7263); caspase-3 and caspase-8 activities measured by spectrophotometry (Biovision) in neutrophil lysates. In DMF-differentiated-PLB985 cells, apoptosis was triggered by gliotoxin or by rTRAIL (10 ng/ml; RD System) (Yin et al. 2005, Int. J. Biochem. Cell Biol. 37:1696-1708) and caspase-8 and caspase-9 activities were determined after gating on CD11b^+ cells using the Caspase-Glow® assay (Promega). Apoptosis-induced chromatin condensation and DNA fragmentation were assessed, respectively, after DNA staining with the blue fluorescent dye Hoechst (5 mg/ml) and propidium-iodide staining (Goepel et al. 2004, J. Leukoc. Biol. 75:836-843). Carboxyp21 ([…], SEQ ID NO: 24) corresponding to the p21 carboxy-terminus sequence (residues 141-160) and containing a RYIRS carboxy-terminal extension to facilitate its cell entry was synthesized and purified (Genecust). […]
Molecule,Procaspase-9 cleavage / activation (procaspase-9),"PCNA content of neutrophils from treated donors (immunoblotting) (neutrophils [1]; healthy donors treated with G-CSF for 5 days, compared to before treatment)","Constitutive apoptosis of neutrophils from treated donors (neutrophils [1]; healthy donors treated with G-CSF, 15-h culture)",Effect on decrease of PCNA expression during incubation at 37° C. (PCNA),Neutrophil survival (annexin-V− 7-AAD− cells) (neutrophils [2])
B1,did not affect pro-caspase 9 activation,,,,
B2,,markedly increased,decreased tendency of these neutrophils to undergo constitutive apoptosis,totally prevented,prolonged neutrophil survival
